Test results as given in US20260125649A1, “MEDIUM COMPOSITION AND METHOD FOR CULTURING MESENCHYMAL STEM CELLS” (ACADEMIA SINICA, priority 2018, published 2026).

Legend:
Format in all cases: cell-based, human
γ-secretase = γ-secretase activity assay in MSC lysates; settings: EpEX-stimulated MSCs
Procedure: FIG. 9. EpEX induces the phosphorylation and activity of TACE and γ-secretase. MSCs were stimulated by EpEX for the indicated times, and the activity of TACE and γ-secretase were detected. MSCs were stimulated by EpEX (3 μg/mL) for the indicated times. Western blot analysis was performed to detect the phosphorylation of TACE and Presenilin 2.
ADAM17 activity was measured using the InnoZyme ADAM17 activity kit (Calbiochem). In brief, cell lysates were harvested and loaded into a TACE antibody-coated plate. After 1 h incubation, the lysate was removed and the plate was washed twice. Substrate was added into each well for 5 h at 37° C. After incubation, the fluorescence signal of the reaction product was detected at excitation of 324 nm and emission of 405 nm. For the detection of γ-secretase activity, cell lysates were extracted and 500 μg protein was used. γ-secretase activity was detected by γ-secretase substrate (35 μM).

[1] = tested on: Oct4, Sox2, c-Myc and EpCAM; test: Flow cytometry of stemness markers in MSCs; settings: data not shown
Procedure: Cells were dissociated with 0.25% trypsin-EDTA (1 mM) (Invitrogen) for 3 min, washed with fluorescence-activated cell sorting buffer (FACS buffer, PBS containing 1% fetal bovine serum), fixed in 4% PFA, and then permeabilized with 0.1% Triton X-100 in PBS. Subsequently, cells were stained with Oct4, Sox2 or Nanog antibodies (1:100, ab 107156, Abcam, UK), washed and suspended in FACS buffer, and incubated with secondary antibody (1:200, Jackson ImmunoResearch) for 60 min at room temperature. Flow cytometry analysis was performed with a BD FACSCanto II flow cytometer (BD Biosciences, CA, USA).
We used human bone marrow-derived MSCs to study the effects of EpEX and first investigated whether EpEX promotes cell proliferation of MSCs. […] Next, we examined the effect of EpEX on cell cycle progression by flow cytometry with propidium iodide (PI) staining. […] EpCAM has been reported to enhance cell cycle progression through upregulation of the proto-oncogene c-Myc and cyclin A/E (Munz et al., 2004). Additionally, EpCAM is known to upregulate cyclin D1 via its direct interaction partner, FHL2, and downstream events such as phosphorylation of the retinoblastoma protein, Rb (Chaves-Perez et al., 2013). Therefore, we further asked whether EpEX can function to upregulate the expression of cell cycle regulators and pluripotency markers. […]

[2] = tested on: cyclin A2, cyclin D1, cyclin D2, cyclin D3, cyclin E1, CDK4, CDK9, Oct4, Sox2, c-Myc, Lin28; test: Western blotting of cell cycle regulators and pluripotency factors in MSCs; settings: EpEX 3 μg/mL
Procedure: The proliferation of MSCs was examined by measuring doubling time. MSCs were treated with EpEX (3 μg/mL) for 24 and 48 h. Cell number was counted and then doubling time was calculated. MSCs were treated with EpEX (3 μg/mL) for the indicated times. After treatment, protein expression of cell cycle regulators (cyclin D1, cyclin D2, cyclin D3, cyclin E1, CDK4 and CDK9) and pluripotency factors (Oct4, Sox2, c-Myc, and Lin28) was examined by Western blotting.
Phospho-EGFR (Tyr845) was detected by Western blotting. […] After treatment, cell cycle progression was investigated by flow cytometry with PI staining. Fraction of cells in each phase (G1, S, G2/M) of the cell cycle was evaluated. Cells that expressed EGFR shRNA or shLuc were treated with EpEX for 18 h. After treatment, cell cycle progression was investigated by flow cytometry with PI staining. Fraction of cells in each phase (G1, S, G2/M) of the cell cycle was evaluated. […]
After treatment, the protein levels of total STAT3 and phospho-STAT3 (Tyr705) were examined by Western blotting. […] Fraction of cells in each phase (G1, S, G2/M) of the cell cycle was evaluated. […] Fraction of cells in each phase (G1, S, G2/M) of the cell cycle was evaluated. […]
The expression of let-7 was detected by qPCR. […] The expression of let-7 was detected by qPCR. […]

activation of γ-secretase (γ-secretase): induced
B1: EpEX: extracellular domain of human EpCAM, 265 amino acids in length (SEQ ID NO: 2) (protein, listed as Homo sapiens)
chain: MAPPQVLAFGLLLAAATATFAAAQEECVCENYKLAVNCFVNNNRQCQCTSVGAQNTVICSKLAAKCLVMKAEMNGSKLGRRAKPEGALQNNDGLYDPDCDESGLFKAKQCNGTSMCWCVNTAGVRRTDKDTEITCSERVRTYWIIIELKHKAREKPYDSKSLRTALQKEITTRYQLDPKFITSILYENNVITIDLVQNSSQKTQNDVDIADVAYYFEKDVKGESLFHSKKMDLTVNGEQLDLDPGQTLIYYVDEKAPEFSMQGLK
protein levels of the stemness markers Oct4, Sox2, c-Myc and EpCAM [1]: increased
protein expression of cell cycle regulators (cyclin A2, D1, D2, D3, E1, CDK4, CDK9) [2]: significantly increased
protein expression of pluripotency markers (Oct4, Sox2, c-Myc, Lin28) [2]: significantly increased
